Measurements from the RNAGym collection of RNA variant scans (doi:10.1093/molbev/msab373).

B1: Azoarcus group I ribozyme (parent)
chain: GUGCCUUGCGCCGGGAAACCACGCAAGGGAUGGUGUCAAAUUCGGCGAAACCUAAGCGCCCGCCCGGGCGUAUGGCAACGCCGAGCCAAGCUUCGGCGCCUGCGCCGAUGAAGGUGUAGAGACUAGACGGCACCCACCUAAGGCAAACGCUAUGGUGAAGGCAUAGUCCAGGGAGUGGCGAAAGUCACACAAACCGG

Variants of: B1
Assay: reverse-splicing fitness (ratio to wild type); higher = more active; in vitro selection; Mg2+ level not given
Method in brief: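 An in vitro group I ribozyme library with randomized positions was T7-transcribed and gel-purified. In triplicate, 10 pmol RNA in EPPS pH 7.5 was reacted with 50 pmoles of a 30-nt RNA substrate for 1 h at 37 °C across several added MgCl2 levels (1–48 mM), then stopped with EDTA. Products were reverse transcribed from a substrate-complementary primer, PCR-amplified and sequenced (HiSeq 4000). Fitness is a variant's read proportion after selection over that before, normalised to wild type.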

Compared with GUGCCUUGCGCCGGGAAACCACGCAAGGGAUGGUGUCAAAUUCGGCGAAACCUAAGCGCCCGCCCGGGCGUAUGGCAACGCCGAGCCAAGCUUCGGCGCCUGCGCCGAUGGAGGUGUAGAGACUAGACGGCACCCACCUAAGGCGAACGAUAUGGUGAAGGCAUAGUCAAGGGAGAGGCGAAAGUCACACAAACCGG [A111G A145G C150A C169A U176A], GUGCCUUGCGCCGGGAAACCACGCAAGGGAUGGUGUCAAAUUCGGCGAAACCUAAGCGCCCGCCCGGGCGUAUGGCAACGCCGAGCCAAGCUUCGGCGCCUGCGCCGAUGGAGGUGUAGAGACUAGACGGCACCCACCUAAGGCGAACGAUAUGGUGAAGGCAUAGUCAAGGGAGGGGCGAAAGUCACACAAACCGG [A111G A145G C150A C169A U176G] is lower in reverse-splicing fitness: 0.0183 for the first, 0.00563 for the second.

Compared with GUGCCUUGCGCCGGGAAACCACGCAAGGGAUGGUGUCAAAUUCGGCGAAACCUAAGCGCCCGCCCGGGCGUAUGGCAACGCCGAGCCAAGCUUCGGCGCCUGCGCCGAUGGAGGUGUAGAGACUAGACGGCACCCACCUAAGGCGAACGAUAUGGUGAAGGCAUAGUCAAGGGAGCGGCGAAAGUCACACAAACCGG [A111G A145G C150A C169A U176C], GUGCCUUGCGCCGGGAAACCACGCAAGGGAUGGUGUCAAAUUCGGCGAAACCUAAGCGCCCGCCCGGGCGUAUGGCAACGCCGAGCCAAGCUUCGGCGCCUGCGCCGAUGGAGGUGUAGAGACUAGACGGCACCCACCUAAGGCGAACGAUAUGGUGAAGGCAUAGUCCAGGGAGAGGCGAAAGUCACACAAACCGG [A111G A145G C150A U176A] is higher in reverse-splicing fitness: 0.0214 for the first, 0.297 for the second.

Compared with GUGCCUUGCGCCGGGAAACCACGCAAGGGAUGGUGUCAAAUUCGGCGAAACCUAAGCGCCCGCCCGGGCGUAUGGCAACGCCGAGCCAAGCUUCGGCGCCUGCGCCGAUGGAGGUGUAGAGACUAGACGGCACCCACCUAAGGCGAACGAUAUGGUGAAGGCAUAGUCCAGGGAGCGGCGAAAGUCACACAAACCGG [A111G A145G C150A U176C], GUGCCUUGCGCCGGGAAACCACGCAAGGGAUGGUGUCAAAUUCGGCGAAACCUAAGCGCCCGCCCGGGCGUAUGGCAACGCCGAGCCAAGCUUCGGCGCCUGCGCCGAUGGAGGUGUAGAGACUAGACGGCACCCACCUAAGGCGAACGAUAUGGUGAAGGCAUAGUCCAGGGAGGGGCGAAAGUCACACAAACCGG [A111G A145G C150A U176G] is lower in reverse-splicing fitness: 0.32 for the first, 0.109 for the second.

Going from GUGCCUUGCGCCGGGAAACCACGCAAGGGAUGGUGUCAAAUUCGGCGAAACCUAAGCGCCCGCCCGGGCGUAUGGCAACGCCGAGCCAAGCUUCGGCGCCUGCGCCGAUGGAGGUGUAGAGACUAGACGGCACCCACCUAAGGCGAACGAUAUGGUGAAGGCAUAGUCGAGGGAGGGGCGAAAGUCACACAAACCGG [A111G A145G C150A C169G U176G] to GUGCCUUGCGCCGGGAAACCACGCAAGGGAUGGUGUCAAAUUCGGCGAAACCUAAGCGCCCGCCCGGGCGUAUGGCAACGCCGAGCCAAGCUUCGGCGCCUGCGCCGAUGGAGGUGUAGAGACUAGACGGCACCCACCUAAGGCGAACGAUAUGGUGAAGGCAUAGUCGAGGGAGCGGCGAAAGUCACACAAACCGG [A111G A145G C150A C169G U176C], the reverse-splicing fitness rises from 0.00564 to 0.0276.

Compared with GUGCCUUGCGCCGGGAAACCACGCAAGGGAUGGUGUCAAAUUCGGCGAAACCUAAGCGCCCGCCCGGGCGUAUGGCAACGCCGAGCCAAGCUUCGGCGCCUGCGCCGAUGGAGGUGUAGAGACUAGACGGCACCCACCUAAGGCGAACGAUAUGGUGAAGGCAUAGUCGAGGGAGAGGCGAAAGUCACACAAACCGG [A111G A145G C150A C169G U176A], GUGCCUUGCGCCGGGAAACCACGCAAGGGAUGGUGUCAAAUUCGGCGAAACCUAAGCGCCCGCCCGGGCGUAUGGCAACGCCGAGCCAAGCUUCGGCGCCUGCGCCGAUGGAGGUGUAGAGACUAGACGGCACCCACCUAAGGCGAACGAUAUGGUGAAGGCAUAGUCUAGGGAGAGGCGAAAGUCACACAAACCGG [A111G A145G C150A C169U U176A] is lower in reverse-splicing fitness: 0.0234 for the first, 0.0202 for the second.

Going from GUGCCUUGCGCCGGGAAACCACGCAAGGGAUGGUGUCAAAUUCGGCGAAACCUAAGCGCCCGCCCGGGCGUAUGGCAACGCCGAGCCAAGCUUCGGCGCCUGCGCCGAUGGAGGUGUAGAGACUAGACGGCACCCACCUAAGGCGAACGAUAUGGUGAAGGCAUAGUCUAGGGAGCGGCGAAAGUCACACAAACCGG [A111G A145G C150A C169U U176C] to GUGCCUUGCGCCGGGAAACCACGCAAGGGAUGGUGUCAAAUUCGGCGAAACCUAAGCGCCCGCCCGGGCGUAUGGCAACGCCGAGCCAAGCUUCGGCGCCUGCGCCGAUGGAGGUGUAGAGACUAGACGGCACCCACCUAAGGCGAACGAUAUGGUGAAGGCAUAGUCUAGGGAGGGGCGAAAGUCACACAAACCGG [A111G A145G C150A C169U U176G], the reverse-splicing fitness falls from 0.0251 to 0.00641.

Compared with GUGCCUUGCGCCGGGAAACCACGCAAGGGAUGGUGUCAAAUUCGGCGAAACCUAAGCGCCCGCCCGGGCGUAUGGCAACGCCGAGCCAAGCUUCGGCGCCUGCGCCGAUGGAGGUGUAGAGACUAGACGGCACCCACCUAAGGCGAACGAUAUGGUGAAGGCAUAGUCUAGGGAGUGGCGAAAGUCACACAAACCGG [A111G A145G C150A C169U], GUGCCUUGCGCCGGGAAACCACGCAAGGGAUGGUGUCAAAUUCGGCGAAACCUAAGCGCCCGCCCGGGCGUAUGGCAACGCCGAGCCAAGCUUCGGCGCCUGCGCCGAUGGAGGUGUAGAGACUAGACGGCACCCACCUAAGGCGAACGAUAUGGUGAAGGCAUAGUCAAGGGAGUGGCGAAAGUCACACAAACCGG [A111G A145G C150A C169A] is lower in reverse-splicing fitness: 0.0371 for the first, 0.0138 for the second.

In the case of GUGCCUUGCGCCGGGAAACCACGCAAGGGAUGGUGUCAAAUUCGGCGAAACCUAAGCGCCCGCCCGGGCGUAUGGCAACGCCGAGCCAAGCUUCGGCGCCUGCGCCGAUGGAGGUGUAGAGACUAGACGGCACCCACCUAAGGCGAACGAUAUGGUGAAGGCAUAGUCGAGGGAGUGGCGAAAGUCACACAAACCGG [A111G A145G C150A C169G], the reverse-splicing fitness is reported as 0.0238.
